For the experiment, the target named is Histone H3 acetylated at K14 (endogenous, HEK293), P68431. Nature of the experiment: anti-FLAG immunoprecipitation and western blot, quantified. As to conditions: chain shown with the change; HEK293 cells transiently transfected; three biological replicates; anti-H3K14ac blot; parent: est. 1.0; read off a plot. A general note: Immunoblotting shows a protein as a band on a membrane.

The results in this text go back to publication PMC5177622, “Multivalent Histone and DNA Engagement by a PHD/BRD/PWWP Triple Reader Cassette Recruits ZMYND8 to K14ac-Rich Chromatin” (Cell Reports, 2016).

B1: 3×FLAG-ZMYND8 full length, wild type, Q9ULU4-13 N228F (protein)
chain: MDISTRSKDPGSAERTAQKRKFPSPPHSSNGHSPQDTSTSPIKKKKKPGLLNSNNKEQSELRHGPFYYMKQPLTTDPVDVVPQDGRNDFYCWVCHREGQVLCCELCPRVYHAKCLRLTSEPEGDWFCPECEKITVAECIETQSKAMTMLTIEQLSYLLKFAIQKMKQPGTDAFQKPVPLEQHPDYAEYIFHPMDLCTLEKNAKKKMYGCTEAFLADAKWILHNCIIYFGGNHKLTQIAKVVIKICEHEMNEIEVCPECYLAACQKRDNWFCEPCSNPHPLVWAKLKGFPFWPAKALRDKDGQVDARFFGQHDRAWVPINNCYLMSKEIPFSVKKTKSIFNSAMQEMEVYVENIRRKFGVFNYSPFRTPYTPNSQYQMLLDPTNPSAGTAKIDKQEKVKLNFDMTASPKILMSKPVLSGGTGRRISLSDMPRSPMSTNSSVHTGSDVEQDAEKKATSSHFSASEESMDFLDKSTASPASTKTGQAGSLSGSPKPFSPQLSAPITTKTDKTSTTGSILNLNLDRSKAEMDLKELSESVQQQSTPVPLISPKRQIRSRFQLNLDKTIESCKAQLGINEISEDVYTAVEHSDSEDSEKSDSSDSEYISDDEQKSKNEPEDTEDKEGCQMDKEPSAVKKKPKPTNPVEIKEELKSTSPASEKADPGAVKDKASPEPEKDFSEKAKPSPHPIKDKLKGKDETDSPTVHLGLDSDSESELVIDLGEDHSGREGRKNKKEPKEPSPKQDVVGKTPPSTTVGSHSPPETPVLTRSSAQTSAAGATATTSTSSTVTVTAPAPAATGSPVKKQRPLLPKETAPAVQRVVWNSSSKFQTSSQKWHMQKMQRQQQQQQQQNQQQQPQSSQGTRYQTRQAVKAVQQKEITQSPSTSTITLVTSTQSSPLVTSSGSMSTLVSSVNADLPIATASADVAADIAKYTSKMMDAIKGTMTEIYNDLSKNTTGSTIAEIRRLRIEIEKLQWLHQQELSEMKHNLELTMAEMRQSLEQERDRLIAEVKKQLELEKQQAVDETKKKQWCANCKKEAIFYCCWNTSYCDYPCQQAHWPEHMKSCTQSATAPQQEADAEVNTETLNKSSQGSSSSTQSAPSETASASKEKETSAEKSKESGSTLDLSGSRETPSSILLGSNQGSDHSRSNKSSWSSSDEKRGSTRSDHNTSTSTKSLLPKESRLDTFWD
For the molecule B1, the ratio to parent is 0.19.
